Reference: the Human Domainome abundance scans (Beltran et al. 2025)
± gives the uncertainty stated by the source.

B1: REST corepressor 3, residues 87 to 134; numbered along this chain, Q9P2K3 (parent)
chain: DEWTVEDKVLFEQAFSFHGKSFHRIQQMLPDKTIASLVKYYYSWKKTR
B2: Tyrosine-protein kinase Lck, residues 63 to 120; numbered along this chain, P06239 (parent)
chain: DNLVIALHSYEPSHDGDLGFEKGEQLRILEQSGEWWKAQSLTTGQEGFIPFNFVAKAN

Variants of: B1
Assay: abundance fitness (aPCA) (normalised: wild type 0, dead -1); higher = more abundant; growth selection in yeast, the domain comes from the species named
Settings: Homo sapiens

Variant	abundance fitness
D7Y	-0.686 ± 0.45
V9I	0.032 ± 0.27
A35W	-0.439 ± 0.12
Q27D	-0.62 ± 0.38
Y41I	-0.599 ± 0.44
K20C	-0.337 ± 0.34
H18W	-0.894 ± 0.47
H23D	-0.517 ± 0.41
F22W	0.52 ± 0.099
Y40G	-1.09 ± 0.43
K45Y	0.357 ± 0.19
D1G	0.138 ± 0.13
K8Q	-0.457 ± 0.38
K20L	-0.665 ± 0.24
K8M	-0.035 ± 0.13
K20E	-0.353 ± 0.33
K32V	-0.93 ± 0.07
K8S	-0.822 ± 0.36
M28Y	-0.635 ± 0.47
A14R	-0.635 ± 0.2
L10T	-0.723 ± 0.44
F17A	-0.307 ± 0.17
T33C	-0.805 ± 0.26
K8H	-0.594 ± 0.32
I25S	-0.945 ± 0.34
P30H	-0.498 ± 0.46

Variant	abundance fitness
L29I	-0.315 ± 0.43
I34S	-0.677 ± 0.057
L10M	0.745 ± 0.12
Y42C	-0.132 ± 0.16
K8R	-0.434 ± 0.13
S36D	-0.219 ± 0.4
D7L	-0.796 ± 0.21
I25H	-0.692 ± 0.44
K20V	-0.737 ± 0.36
W44L	-0.329 ± 0.15
S21E	0.261 ± 0.13
W44S	-0.548 ± 0.29
V9E	-0.302 ± 0.14
S36M	-0.288 ± 0.16
L37T	-0.542 ± 0.41
S43E	-0.084 ± 0.12
A14W	-0.664 ± 0.21
F22K	-0.551 ± 0.38
V38N	-0.169 ± 0.13
Q26Y	-0.428 ± 0.33
Y42I	-0.11 ± 0.088
Q26C	-0.172 ± 0.14
P30A	-0.811 ± 0.29
Y42W	0.056 ± 0.076
M28K	-0.686 ± 0.19
E12L	-0.476 ± 0.39

Variant	abundance fitness
L37D	-0.465 ± 0.47
T33L	-0.686 ± 0.19
A14G	-0.73 ± 0.18
S16R	-0.014 ± 0.1
Y40C	-0.674 ± 0.49
Y40R	-0.964 ± 0.28
S36C	-0.008 ± 0.25
T4L	-0.727 ± 0.15
K46W	-0.729 ± 0.13
H18G	-0.764 ± 0.25
Y42M	0.311 ± 0.1
F17N	-0.208 ± 0.43
V9N	0.166 ± 0.22
D7A	-0.811 ± 0.34
H23P	-0.331 ± 0.18
Y42H	-0.236 ± 0.17
D31T	-0.316 ± 0.25
L37M	-0.711 ± 0.43
Y42T	0.103 ± 0.072
D31G	0.029 ± 0.073
I34A	-0.845 ± 0.15
K32W	-0.945 ± 0.13
D31L	-0.314 ± 0.13
L29Q	-0.692 ± 0.3
V38W	-0.575 ± 0.15
S21M	-0.344 ± 0.21

Variant	abundance fitness
V5Y	0.218 ± 0.12
F15L	-0.658 ± 0.25
I34Y	-0.508 ± 0.38
Y42F	-0.555 ± 0.31
V9S	-0.143 ± 0.15
V38H	-0.723 ± 0.17
I34M	-0.255 ± 0.062
S16D	0.149 ± 0.12
S21L	-0.63 ± 0.23
F22L	-0.693 ± 0.21
K45A	-0.336 ± 0.17
E6V	-0.777 ± 0.33
K39L	-0.732 ± 0.14
E12I	-0.24 ± 0.29
H23C	-0.649 ± 0.48
S43M	-0.547 ± 0.17
D31E	0.026 ± 0.17
R48E	0.016 ± 0.21
K39T	-0.422 ± 0.23
Q27M	0.449 ± 0.13
M28A	-0.382 ± 0.2
Q27R	-0.244 ± 0.13
K20M	0.033 ± 0.22
F17D	0.259 ± 0.29
S16I	-0.554 ± 0.48
L37G	-0.835 ± 0.19

Variant	abundance fitness
V5P	-0.393 ± 0.23
D31K	-0.136 ± 0.21
V5E	0.388 ± 0.11
H23W	-0.56 ± 0.21
R24S	-0.465 ± 0.38
S43F	-0.577 ± 0.39
E6Q	0.293 ± 0.48
R48L	0.326 ± 0.29
D7N	-0.821 ± 0.23
W3R	-1.02 ± 0.32
I34G	-0.767 ± 0.11
S21D	1.11 ± 0.23
S16T	-0.427 ± 0.2
K39W	-0.67 ± 0.38
D31C	-0.45 ± 0.22
M28W	-0.589 ± 0.23
K32D	-0.903 ± 0.12
V5L	-0.458 ± 0.18
V38Y	-0.036 ± 0.13
K45E	-0.546 ± 0.29
R24G	-0.74 ± 0.37
E2N	0.294 ± 0.24
Y41W	-0.574 ± 0.3
F15T	-0.604 ± 0.45
Q26W	-0.82 ± 0.45
P30M	-0.891 ± 0.48

Variant	abundance fitness
P30F	-0.182 ± 0.22
S16Q	-0.084 ± 0.36
Q27I	-0.924 ± 0.21
A35R	-0.016 ± 0.047
A35G	0.045 ± 0.044
F11A	-0.715 ± 0.19
V38M	-0.115 ± 0.095
W44G	-0.649 ± 0.14
K45M	0.081 ± 0.2
S16Y	-0.391 ± 0.38
S43A	-0.128 ± 0.048
A14Y	-0.578 ± 0.38
I34V	-0.747 ± 0.22
Q27T	-0.406 ± 0.23
S36R	-0.478 ± 0.21
H23A	-0.164 ± 0.14
V9W	-0.18 ± 0.24
S21R	0.233 ± 0.11
Y41F	-0.644 ± 0.32
H23V	-0.3 ± 0.15
F17Q	-0.654 ± 0.33
A35Y	-0.451 ± 0.23

Variants of: B2
Assay: as above
Settings: Homo sapiens

Variant	abundance fitness
D1A	-0.337 ± 0.15
D1E	-0.036 ± 0.14
D1G	-0.115 ± 0.12
D1L	-0.487 ± 0.31
D1M	-0.334 ± 0.29
D1N	-0.115 ± 0.18
D1P	-0.827 ± 0.32
D1T	-0.335 ± 0.45
D1V	-0.519 ± 0.13
D1W	-0.331 ± 0.19
D1Y	-0.224 ± 0.31
N2C	-0.309 ± 0.2
N2D	-0.193 ± 0.12
N2E	-0.541 ± 0.13
N2F	0.034 ± 0.45
N2G	-0.428 ± 0.13
N2H	0.146 ± 0.21
N2I	-0.094 ± 0.25
N2L	-0.185 ± 0.094
N2M	-0.075 ± 0.12
N2P	-0.713 ± 0.38
N2Q	-0.174 ± 0.17
N2R	-0.32 ± 0.088

Variant	abundance fitness
N2S	-0.128 ± 0.11
N2T	-0.157 ± 0.14
N2V	-0.851 ± 0.14
N2W	-0.526 ± 0.15
N2Y	-0.243 ± 0.37
L3A	-0.79 ± 0.14
L3C	-0.273 ± 0.17
L3D	-0.503 ± 0.16
L3F	-0.304 ± 0.14
L3G	-0.768 ± 0.12
L3H	-0.486 ± 0.17
L3I	0.091 ± 0.14
L3M	-0.094 ± 0.12
L3N	-0.159 ± 0.26
L3P	-0.74 ± 0.25
L3Q	-0.122 ± 0.15
L3R	-0.178 ± 0.076
L3S	-0.343 ± 0.088
L3T	-0.019 ± 0.11
L3V	-0.212 ± 0.089
L3W	-0.232 ± 0.1
L3Y	-0.113 ± 0.17
V4A	0.123 ± 0.38

Variant	abundance fitness
V4F	-0.054 ± 0.39
V4G	-0.431 ± 0.37
V4H	-0.073 ± 0.28
V4L	-0.04 ± 0.26
V4M	-0.173 ± 0.3
V4N	-0.727 ± 0.35
V4R	-0.29 ± 0.2
V4T	-0.325 ± 0.28
I5M	-0.26 ± 0.15
A6C	-0.217 ± 0.14
A6D	-0.907 ± 0.38
A6E	-0.857 ± 0.26
A6F	-0.907 ± 0.22
A6G	-0.212 ± 0.078
A6H	-0.756 ± 0.15
A6I	-0.772 ± 0.15
A6K	-0.933 ± 0.28
A6L	-0.845 ± 0.12
A6M	-0.637 ± 0.19
A6N	-0.956 ± 0.2
A6P	-0.897 ± 0.16
A6Q	-0.84 ± 0.28
A6S	-0.348 ± 0.088

Variant	abundance fitness
A6T	-0.113 ± 0.12
A6V	-0.556 ± 0.097
A6W	-1.2 ± 0.32
A6Y	-0.99 ± 0.21
L7A	-0.249 ± 0.13
L7C	-0.357 ± 0.11
L7D	-0.486 ± 0.13
L7E	-0.217 ± 0.11
L7F	-0.705 ± 0.17
L7H	-0.429 ± 0.28
L7I	-0.079 ± 0.22
L7K	-0.232 ± 0.14
L7M	-0.097 ± 0.11
L7N	-0.602 ± 0.3
L7P	-0.38 ± 0.15
L7Q	-0.131 ± 0.17
L7R	-0.298 ± 0.084
L7S	-0.21 ± 0.091
L7T	-0.224 ± 0.14
L7V	-0.161 ± 0.073
L7Y	-0.54 ± 0.22
H8A	-0.067 ± 0.12
H8C	-0.131 ± 0.11

Variant	abundance fitness
H8D	0.003 ± 0.13
H8E	-0.096 ± 0.1
H8G	-0.295 ± 0.08
H8I	-0.262 ± 0.11
H8K	0.285 ± 0.17
H8L	-0.285 ± 0.083
H8N	-0.001 ± 0.14
H8P	-0.79 ± 0.18
H8Q	-0.086 ± 0.13
H8R	0.034 ± 0.074
H8S	-0.078 ± 0.091
H8T	-0.012 ± 0.11
H8V	-0.227 ± 0.085
S9A	-0.235 ± 0.12
S9C	-0.25 ± 0.12
S9E	-0.218 ± 0.1
S9F	-0.798 ± 0.13
S9G	-0.116 ± 0.077
S9H	-0.254 ± 0.15
S9I	-0.888 ± 0.2
S9K	0.017 ± 0.14
S9L	-0.84 ± 0.12
S9M	-0.473 ± 0.13

Variant	abundance fitness
S9N	0.045 ± 0.12
S9P	-0.166 ± 0.12
S9Q	-0.276 ± 0.14
S9R	-0.11 ± 0.072
S9T	-0.046 ± 0.12
S9V	-0.676 ± 0.11
S9W	-0.923 ± 0.15
S9Y	-0.619 ± 0.16
Y10A	-0.671 ± 0.12
Y10C	-0.415 ± 0.12
Y10D	-0.511 ± 0.14
Y10F	-0.241 ± 0.14
Y10G	-0.717 ± 0.086
Y10H	-0.087 ± 0.16
Y10I	-0.619 ± 0.24
Y10K	-0.113 ± 0.17
Y10L	-0.488 ± 0.092
Y10M	-0.444 ± 0.15
Y10N	-0.587 ± 0.19
Y10P	-0.673 ± 0.14
Y10R	-0.289 ± 0.079
Y10S	-0.662 ± 0.098
Y10T	-0.604 ± 0.12

Variant	abundance fitness
Y10V	-0.485 ± 0.1
Y10W	-0.019 ± 0.09
E11A	-0.137 ± 0.085
E11C	-0.21 ± 0.12
E11D	-0.116 ± 0.12
E11F	-0.214 ± 0.18
E11G	-0.431 ± 0.066
E11H	-0.156 ± 0.18
E11I	-0.177 ± 0.19
E11K	0.206 ± 0.19
E11L	-0.164 ± 0.084
E11M	-0.409 ± 0.14
E11N	-0.171 ± 0.16
E11P	-0.409 ± 0.13
E11Q	-0.199 ± 0.16
E11R	-0.145 ± 0.075
E11S	-0.16 ± 0.11
E11T	0.064 ± 0.12
E11V	-0.05 ± 0.08
E11W	-0.435 ± 0.11
E11Y	-0.363 ± 0.16
P12C	-0.387 ± 0.12
P12D	-0.439 ± 0.27

Variant	abundance fitness
P12E	-0.755 ± 0.1
P12F	-1.08 ± 0.21
P12G	-0.497 ± 0.09
P12H	-0.846 ± 0.3
P12I	-0.506 ± 0.16
P12K	-0.471 ± 0.12
P12L	-0.913 ± 0.12
P12N	-0.557 ± 0.22
P12Q	-1 ± 0.23
P12R	-0.705 ± 0.082
P12S	-0.366 ± 0.085
P12T	-0.529 ± 0.1
P12V	-0.717 ± 0.11
P12Y	-0.525 ± 0.16
S13A	-0.177 ± 0.11
S13C	-0.047 ± 0.1
S13D	-0.062 ± 0.12
S13E	-0.096 ± 0.095
S13F	-0.412 ± 0.11
S13G	-0.251 ± 0.07
S13H	-0.174 ± 0.15
